Measured values taken from patent US20230110994A1, “CONJUGATES UNDERGOING INTRAMOLECULAR REARRANGEMENTS” (Ascendis Pharma A/S, priority 2020, published 2023).

Assay: Plasma pharmacokinetics of HHC^MET in Wistar rats (sandwich ELISA)
Assay type: in vivo
Conditions: n = 3
Method: This study was performed in order to investigate the plasma pharmacokinetics of HHC^MET in Wistar rats following subcutaneous and intramuscular administration of transient HHC^MET-linker hydrogel prodrug 32 or following subcutaneous or intravenous administration of free HHC^MET. Animals (n=3 per group) received either a single SC injection in the neck region or a single IM injection in the thigh musculature of a formulation of 32 (10 mg/kg HHC^MET equivalents) or a single SC injection in the neck region or IV injection in the tail vein of an HHC^MET formulation (10 mg/kg HHC^MET). At selected time points, 200 μL blood were collected in Li-Heparin tubes and processed to plasma by centrifugation at 3,000 g for 10 minutes at 4° C. HHC^MET concentrations in rat plasma were determined with an in-house developed sandwich ELISA setup. For capturing HHC^MET, a human CTLA-4 (AA Ala37-Ser160)-Fc Tag fusion protein (Supplier AcroBiosystem, Newark, Del.; USA, catalog no. CT4-H5255) was coated to the ELISA plate wells and read-out was performed via a rabbit anti-camelid VHH antibody conjugated with horseradish peroxidase (supplier Genscript, Piscataway, N.J., USA, catalog no. A01861-200).
Calibration standards of HHC^MET in blank plasma were prepared as follows: thawed Li-Heparin Wistar rat plasma was homogenized. The free HHC^MET formulation was spiked into blank plasma at concentrations between 96.0 ng/mL and 3.00 ng/mL with additional higher and lower anchor points. These solutions were used for the generation of a calibration curve. Calibration curves were analyzed via a 4-parameter […] fit and 1/Y weighted. Calibration curves were confirmed via separately prepared quality control standards at 10, 40 and 80 ng/mL.

B1: HHC^MET: custom made protein of SEQ ID NO:1, expressed from E. coli (protein)
chain: EVQLVESGGGLVQAGGSLRLSCAASGGTFSFYGMGWFRQAPGKEQEFVADIRTSAGRTYYADSVKGRFTISRDNAKNTVYLQMNSLKPEDTAVYYCAAEMSGISGWDYWGQGTQVTVSSGGGGSGGGSEVQLVESGGGLVQAGGSLRLSCAASGGTFSFYGMGWFRQAPGKEQEFVADIRTSAGRTYYADSVKGRFTISRDNAKNTVYLQMNSLKPEDTAVYYCAAEMSGISGWDYWGQGTQVTVSS
modifications: nanobody
Question: With B1 as the molecule, how does the “mean HHC^MET concentration in plasma” value (intravenous, 10 mg/kg, 0.25 h) read?
Answer: 17400 ng/mL

Question: And the “mean HHC^MET concentration in plasma” value (intravenous, 10 mg/kg, 1 h)?
Answer: 3530 ng/mL

Question: What about the “mean HHC^MET concentration in plasma” value (intravenous, 10 mg/kg, 4 h) of the same molecule?
Answer: 1720 ng/mL

Question: What about the “mean HHC^MET concentration in plasma” value (intravenous, 10 mg/kg, 24 h) of the same molecule?
Answer: 8.27 ng/mL

Question: What about the “mean HHC^MET concentration in plasma” value (intravenous, 10 mg/kg, 32 h) of the same molecule?
Answer: <LLOQ

Question: What about the “mean HHC^MET concentration in plasma” value (intravenous, 10 mg/kg, 48 h) of the same molecule?
Answer: <LLOQ

Question: And the “mean HHC^MET concentration in plasma” value (intravenous, 10 mg/kg, 72 h)?
Answer: 1.15 ng/mL

Question: What about the “mean HHC^MET concentration in plasma” value (intravenous, 10 mg/kg, 96 h) of the same molecule?
Answer: <LLOQ

Question: And the “mean HHC^MET concentration in plasma” value (intravenous, 10 mg/kg, 168 h)?
Answer: <LLOQ

Question: And the “mean HHC^MET concentration in plasma” value (subcutaneous, 10 mg/kg HHC^MET (equivalents), 0.25 h)?
Answer: 2540 ng/mL

Question: What about the “mean HHC^MET concentration in plasma” value (subcutaneous, 10 mg/kg HHC^MET (equivalents), 1 h) of the same molecule?
Answer: 5090 ng/mL

Question: What about the “mean HHC^MET concentration in plasma” value (subcutaneous, 10 mg/kg HHC^MET (equivalents), 4 h) of the same molecule?
Answer: 2280 ng/mL

Question: What about the “mean HHC^MET concentration in plasma” value (subcutaneous, 10 mg/kg HHC^MET (equivalents), 24 h) of the same molecule?
Answer: 2.60 ng/mL

Question: And the “mean HHC^MET concentration in plasma” value (subcutaneous, 10 mg/kg HHC^MET (equivalents), 32 h)?
Answer: <LLOQ

Question: What about the “mean HHC^MET concentration in plasma” value (subcutaneous, 10 mg/kg HHC^MET (equivalents), 48 h) of the same molecule?
Answer: <LLOQ

Question: What about the “mean HHC^MET concentration in plasma” value (subcutaneous, 10 mg/kg HHC^MET (equivalents), 72 h) of the same molecule?
Answer: 2.07 ng/mL

Question: What about the “mean HHC^MET concentration in plasma” value (subcutaneous, 10 mg/kg HHC^MET (equivalents), 96 h) of the same molecule?
Answer: <LLOQ

Question: What about the “mean HHC^MET concentration in plasma” value (subcutaneous, 10 mg/kg HHC^MET (equivalents), 168 h) of the same molecule?
Answer: <LLOQ
